# From patent US20090305963A1, “Lipocalin 2 for the Treatment, Prevention, and Management of Cancer Metastasis, Angiogenesis, and Fibrosis” (priority 2005, published 2009)
# Tests used:
# [1] = system: serum-response element (SRE); assay: SRE-luciferase assay; assay type: cell-based, mouse; conditions: RL cells; 48 hour incubation in serum free DMEM
# Description: After transient transfection of the plasmids, cells were incubated for 20 hours in 10% FCS and luciferase activity in the cell lysates was determined using a luminometer normalized by sea-pansy luciferase activity under the control of the thymidine kinase promoter. The Dual-Luciferase Reporter Assay System was purchased from Promega (Madison, Wis.) (Hanai et al., J. Biol. Chem. 277:16464-16469, 2002).
# For these experiments, EV and R cells were starved in DMEM without serum for 48 hours. During this time, half of the R cells were incubated with 50 μg/ml of lipocalin 2 protein with iron-loaded siderophore (R+Lipo:Sid:Fe), after which all cells were incubated with 10% FCS containing DMEM for 20 minutes and then harvested for western blotting with phosphospecific antibodies. Signaling events downstream of ERK activation were then monitored with a multi-copy serum-response element (SRE)-luciferase construct introduced into EV, R, and RL (FIG. 6B). For these experiments, an SRE-luciferase assay was performed on 4T1 clones after the 48 hour incubation in serum free DMEM. […] Just like R cells treated with exogenous protein (FIG. 6A), R cells infection with recombinant adenovirus carrying lipocalin 2, but not GFP, reduced SRE-luciferase activity, MEK, and ERK1/2 phosphorylation, without altering ras expression.
# To localize the effect of lipocalin on ras-MAPK signaling, we utilized an adenovirus and expression plasmid encoding a constitutively active MEK (MEK-DD) (Murakami et al., Cell Growth Differ 10:333-342, 1999). MEK-DD adenoviral infection of EV cells led to increased SRE-luciferase activity (increased MAPK activity). […] RL cells in a 6-well plate were infected with an adenovirus carrying the MEK dominant active form (MEK-DD) and a Lac-Z adenovirus at the indicated multiplicities (MOI) in 2% serum including DMEM medium for 48 hours. Cells were then trypsinized, respread on 6-well plate at 5-10% confluency, and incubated with 10% serum including DMEM medium. Cell lysates were collected for western blotting 48 hours after the final plating (FIG. 6D). […]
# [2] = system: 4T1 primary tumor; assay: Western blot of total cell lysate from 4T1 primary tumors; assay type: in vivo, Balb/c mice
# Source text: 4T1 clones (EV, R and RL) were suspended in PBS and injected subcutaneously in the backs of Balb/c mice. 3 weeks later, primary tumor tissue was dissected, homogenized and the supernatant fluid was collected as total cell lysate. Western blot of total cell lysate from each primary tumor for the antigen is shown. GAPDH serves as a loading control. The E-cadherin, vimentin and GAPDH data is from Hanai et al., J. Biol. Chem. 280:13641-13647 (2005).
# Cells were stained as described previously (Mammoto et al., Cancer Lett. 184:165-170, 2002) and images acquired with a Delta Vision system (Applied Precision, Issaquah, Wash.) equipped with an Axiovert 100 microscope (Carl Zeiss MicroImaging Inc., Shelton, Conn.) and a Photometrics 300 series scientific-grade cooled CCD camera, reading 12-bit images, and using the 63/1.4 NA plan-Neofluar objective. For immunoprecipitation and immunoblotting, tissues were weighed, diced, soaked in ice cold RIPA buffer with 1 mM phenylmethylsulfonyl fluoride (PMSF), 1 μg/ml Aprotinin, 1 mM Na3VO4, 1 nM NaF, homogenized on ice, centrifuged at 10,000 g for 10 minutes at 4° C., and the supernatant fluid collected as total cell lysate. Cultured cells were washed, scraped, and solubilized in a lysis buffer containing 20 mM Tris-HCl pH 7.5, 150 mM NaCl, 0.5% Triton X-100, 1% aprotinin, and 1 mM PMSF. After 20 minutes on ice, the cells were pelleted by centrifugation and the supernatants were used as a cell lysate. Cell lysates or immunoprecipitated cell lysates were separated by PAGE (NuPAGE® gels; Invitrogen, Carlsbad, Calif.), followed by electroblotting onto a polyvinylidenedifluoride membrane (PVDF). Protein bands were detected using SuperSignal® West Pico Chemiluminescent Substrate (Pierce Chemical Co., Rockford, Ill.) (Hanai et al., J. Cell. Biol. 158:529-539, 2002).
# To determine whether lipocalin 2 could affect expression of anti-angiogenic factors in vivo, we injected EV, R, or RL cells subcutaneously in the backs of Balb/c mice and dissected the primary tumors at 3 weeks post-inoculation. As shown above and in Hanai et al., supra, E-cadherin and vimentin protein expression varied reciprocally in the three tumor types. We assessed the expression of VEGF and thrombospondin-1 (TSP-1) by western blot in each tumor tissue.
# [3] = system: VEGF mRNA; assay: VEGF mRNA by semi-quantitative RT-PCR in 4T1 cells; assay type: cell-based, mouse; conditions: RL vs R cells
# Description: For VEGF assays, two μg of each RNA sample was reverse transcribed using oligo-dT priming and control reaction was prepared for every sample where the reverse transcriptase was omitted. PCR was performed using Taq DNA polymerase (Qiagen) using primers for mouse VEGF (5′-GTACCTCCACCATGCCAAGT-3′, SEQ ID NO: 10, and 5′-GCGAGTCTGTGTTTTTGCAG-3′ SEQ ID NO: 11), GAPDH (5′-ACAGTCTTCTGAGTGGCA-3′ SEQ ID NO: 6 and 5′-CCCATCACCATCTTCCAG-3′, SEQ ID NO: 7) for DNA amplification. PCR amplification was achieved by initial 94° C. incubation for 5 minutes followed by 25 cycles of 94° C. for 30 seconds, 58° C. for 30 seconds and 72° C. for 30 seconds, with 72° C. for 7 minutes as an extension time. These PCR conditions were established for DNA amplification in the linear range. PCR products were analyzed on 1.5% agarose gels.
# [4] = system: colon cancer cells; conditions: ectopic expression of lipocalin 2; cited from earlier work
molecule,measurement,setting,value
"lipocalin 2: human lipocalin 2 cDNA (HA tagged) in pcDNA3.1, stably expressed in 4T1-ras cells (RL clone); iron-siderophore binding protein (protein, UniProt P80188 21-198, looked up, HA tag) Neutrophil …: QDSTSDLIPAPPLSKVPLQQNFQDNQFQGKWYVVGLAGNAILREDKDPQKMYATIYELKEDKSYNVTSVLFRKKKCDYWIRTFVPGCQPGEFTLGNIKSYPGLTSYLVRVVSTNYNQHAMVFFKKVSQNREYFKITLYGRTKELTSELKENFIRFSKSLGLPENHIVFPVPIDQCIDG",SRE-luciferase activity relative to R cells,[1],about half to two-thirds
same,E-cadherin in primary tumors,[2]; RL tumors vs R,more E-cadherin
same,vimentin in primary tumors,[2]; RL tumors vs R,less vimentin
same,TSP-1 protein in primary tumors,"[2]; RL vs R and EV tumors, 3 weeks post-inoculation",returned in RL cells to the levels noted in EV cells
same,ras-induced increase of VEGF protein in primary tumors,"[2]; RL vs R tumors, 3 weeks post-inoculation",completely abrogated
same,ras-augmented VEGF mRNA level,[3],reduced this upregulation
same,invasiveness of colon cancer cells,[4],suppressed the invasiveness of colon cancer cells
